Data from patent US20230374140A1 (Memorial Sloan Kettering, published 2023).

Key:
HLA-A*02:01 on T2 cells = target: T1, HLA-A*02:01 on T2 cells (human); experiment: HLA-A*02 stabilization on pulsed T2 cells, BB7.2 staining, flow cytometry
T1 construct: whole, on cells; MHC class I molecule of TAP-deficient T2 cells, stabilized by exogenous peptide and detected with BB7.2; also called A*02 protein
Experimental: Flow Cytometry. T2 cells were pulsed overnight with 50 μg/ml of one of the indicated peptides. Pulsed T2 cells were then stained with either BB7.2-PE antibody specific for HLA-A*02 to ensure stabilization of T2 cells with the pulsed peptides or with the labeled TCR mimic antibodies for 30 min on ice as described herein. Cells were washed after incubation with FACS buffer, resuspended in FACS buffer supplemented with DAPI and analyzed using a BD Fortessa™ flow cytometer.
For alanine screening assays, alanine or glycine substituted peptides were purchased from Genemed Synthesis, Inc. (San Antonio, Texas, USA). Besides the unsubstituted sequence of [sequence] […] If in the original peptide sequence the amino acid present was an alanine, the amino acid was changed to glycine. All other amino acids were changed into alanines.

[1] = target: T2, NDC80 Peptide A … / HLA-A*02:01 complex (human); experiment: FACS, scFv phage on peptide-loaded T2 cells
T2 construct: whole, on cells; On peptide-pulsed T2 cells (HLA-A*02:01+); also called NDC80/HLA-A*02:01 complex; NDC80/MHC I
Text: 34 human phage scFv libraries were used to pan against NDC80/HLA-A*02:01 complex. In order to avoid the conformational change of MHC I complex introduced by immobilizing the protein complex onto plastic surfaces, cell panning was used in place of conventional plate panning. In cell panning, the human scFv phage libraries were first mixed with T2 cells loaded with control peptides to remove scFv phage clones that bind to T2 cells alone or MHC alone. […] T2 is a TAP-deficient, HLA-A*02:01⁺ lymphoblast cell line that express low amounts of HLA-A*02 on the cell surface and can only present exogenous peptides. […] After extensive washing with PBS, peptide-loaded T2 cells with bound scFv antibody phage were spun down. […] The panning was performed for 3 rounds to enrich scFv phage clones that bound NDC80/HLA-A*02:01 specifically.

[2] = target: T3, NC1 peptide … / HLA-A*02:01 complex (human); experiment: FACS, scFv phage on T2 cells loaded with single peptide
T3 construct: whole, on cells; On pulsed T2 cells; also pulled down from BV173 lysate (HLA-A*02) and presented on JMN cells

[3] = target: T4, NC2 peptide … / HLA-A*02:01 complex (human); experiment: as above
T4 construct: whole, on cells; On pulsed T2 cells; also presented on JMN cells (HLA-A*02)

[4] = target: T5, NC3 peptide … / HLA-A*02:01 complex (human); experiment: as above
T5 construct: whole, on cells; On pulsed T2 cells; also pulled down from BV173 lysate (HLA-A*02)

[5] = target: T6, NC4 peptide … / HLA-A*02:01 complex (human); experiment: as above
T6 construct: whole, on cells; On pulsed T2 cells

[6] = target: T7, NDC80 derived peptide … / HLA-A*02:01 complex (human); experiment: flow cytometry, antibody on pulsed T2 cells
T7 construct: whole, on cells; On pulsed T2 cells

[7] = target: T8, NDC80 derived peptide … / HLA-A*02:01 complex (human); experiment: flow cytometry, antibody on pulsed T2 cells; remark: listed apart in the source
T8 construct: whole, on cells; On pulsed T2 cells

[8] = target: T3, NC1 peptide … / HLA-A*02:01 complex; experiment: immunopurification from BV173 cell lysate and LC-MS/MS, relative quantitation
Experimental: (§1) 200M BV173 cells were lysed with 1% CHAPS, incubated for 1h in the cold room and spun down at 20,000 g for 50 min.

[9] = target: T5, NC3 peptide … / HLA-A*02:01 complex; experiment: as above
Experimental: as §1
… / HLA-A*02:01 complex [10] = target: T9, … / HLA-A*02:01 complex (human); experiment: as above
T9 construct: whole, on cells; On pulsed T2 cells; also pulled down from BV173 lysate (HLA-A*02)
Experimental: as §1

… / HLA-A*02:01 complex [11] = target: T10, … / HLA-A*02:01 complex (human); experiment: as above; remark: listed apart in the source
T10 construct: whole, on cells; On pulsed T2 cells; also pulled down from BV173 lysate (HLA-A*02)
Experimental: as §1

[12] = target: T2, NDC80 Peptide A … / HLA-A*02:01 complex; experiment: flow cytometry, PE-conjugated antibody on pulsed T2 cells
Experimental: Pulsed T2 cells were harvested, washed with FACS buffer (PBS, 2% FBS and 0.01% sodium azide) and incubated for 30 min, light-protected, on ice with 2 μg/ml of the labeled antibodies. After incubation, cells were washed again with FACS buffer and resuspended in FACS buffer supplemented with DAPI. For the experiments described in FIGS. 10A-10I, incubation with the TCR mimic antibodies was performed at 2, 10 and 50 μg/ml. Cells were analyzed on an LSRFortessa™ (BD) flow cytometer; the data were analyzed using FlowJo™ v9 software.

B1: NDC80 Peptide A ALNEQIARL (synthetic peptide) (peptide)
peptide: ALNEQIARL
notes: Free peptide pulsed on T2 cells at 50 µg/ml in the HLA-A*02 stabilization assay; also called unmodified peptide; wild-type peptide
HLA-A*02:01 on T2 cells
  binding result: binds

B2: Clone 7 scFv phage clone (Clone 07 scFv) (scFv)
scFv: QSVVTQPPSVSGAPGQRITISCTGSSSNIGAGYDVHWYQQLPGTAPKLLIFGNVNRPSGVPDRFSGSKSGTSASLAITGLQAEDEADYYCQSYDSSLSGWVFGGGTKLTVLGSRGGGGSGGGGSGGGGSLEMAQVQLQQSGAEVKKPGATVKVSCKASGYTFTSYGISWVRQAPGQGLEWMGWISAYNGNTNYAQKLQGRVTMTTDTSTSTAYMELRSLRSDDTAVYYCARMSMSEYIDYWGQGTLVTVSS
[1]
  binding result: binds
[2]
  binding result: no binding
[3]
  binding result: no binding
[4]
  binding result: no binding
[5]
  binding result: no binding

B3: TCR mimic antibody clone 1 (mIgG1 clone 1 antibody) (antibody, V domains shown)
VH: EVQLVQSGAEVKKPGESLKISCEASGYSFSSNWIAWVRQRPGKGLEWMGIIYPGDSDTRYSPSFQGQVTMSADMSISTAYLQWSSLKASDTAMYYCARFAGPGMWSYGFDYWGQGTLVTVSS
VL: DIQLTQSPSSLSASVGDRVTITCRASQGIRNDLGWYQQKPGKAPKLMIYAASSLQSGVPSRFSGSGSGTDFTLTISSLQPEDFATYYCLQDYDYPLTFGGGTKLEIKR
notes: also called NDC80 clone 1 mAb; mouse version of NDC80 clone 1 mAb
[6]
  binding result: no binding
[7]
  binding result: no binding
[8]
  fold lower MS signal intensity than …: 3 fold
[9]
  fold lower MS signal intensity than …: ≥ 3 fold
… / HLA-A*02:01 complex [10]
  fold lower MS signal intensity than …: ≥ 3 fold
… / HLA-A*02:01 complex [11]
  fold lower MS signal intensity than …: ≥ 3 fold

B4: TCR mimic antibody clone 11 (mIgG1 format) (antibody, V domains shown)
VH: QVQLVQSGAEVRKPGASVKVSCKASGYSFTSNGITWVRQAPGQGLEWMGWISGYNANTRYAQEFQARVTMTTDTSASTAYMELRSLRSDDTAVYYCARHAYWGGDSDYWGQGTLVTVSS
VL: NFMLTQPHSVSESPGKTVTISCTRSSGSIASNYVQWYQQRPGSAPTTVIYEDNQRPSGVPDRFSGSIDSSSNSASLTISGLKTEDEADYYCQSYDSSNVVFGGGTKLTVLG
notes: conjugated to PE for flow cytometry
[12]
  binding result: binds
